Residue numbers refer to the chain shown, from its start. In names and notes the source's numbering stands. Blank lines part the entries; values can stand above or below the molecule they belong to.
What was measured:
IgE [1] = assay: binding kinetics (method not named in the legend or citing paragraphs; Supplementary Fig. 1e); conditions: parent: est. 2.8e-3 s-1; read off a plot
[2] = target: bIgE-Fc2–4:FcεRIα-Ova complex (UniProt P12319); assay: bead-based disruption assay; conditions: parent: est. 20 µM; read off a plot
FcεRI (Homo sapiens) = FcεRI (Homo sapiens) (UniProt P12319); conditions: cited from earlier work
IgE [3] = assay: binding studies with purified scFvs (method not given; Supplementary Fig. 3c); conditions: read off a plot; for koff: parent: est. 2.5e-3; for kon: parent: est. 1.0e6
[4] = target: disulfide locked IgE-Fc2–4(G335C):FcεRIα(W156C) complex (UniProt P12319); assay: BLI; single cycle kinetics; locked complex captured on Ni-NTA tips, coupled with EDC/NHS, nickel chelated with EDTA; anti-IgE agents in a twofold serial dilution from 1600 nM to 100 nM; 2:1 SCK binding model (Clamp-XP)
[5] = target: Biotinylated full length recombinant IgE (human) (UniProt P01854); assay: BLI; biotinylated full length recombinant IgE on streptavidin (SA) tips; single cycle kinetics, five 100 s associations, four 100 s dissociations and a final 600 s dissociation; analyte in two-fold serial dilutions from 50 nM to 1.56 nM; Octet Red 96; 1:1 SCK model in BiaEvaluation 3.0
biotinylated IgE-Fc2–4 [6] = target: T1, biotinylated IgE-Fc2–4 (human, UniProt P01854 106-427, biotin (Sulfo-NHS-LC-Biotin labelling)); assay: BLI; Octet-Red 96; biotin-labeled human IgE immobilised on streptavidin tips (~0.5 nm); serial dilution of anti-IgE agents from the lowest concentration (single-cycle kinetics); 1:1 SCK binding model; conditions: both partners purified
T1 construct: human IgE heavy chain constant region, Fc fragment with the domains Cε2 to Cε4 (IgE-Fc2–4); PDB 2Y7Q is a cited IgE-Fc2–4:FcεRIα structure and may be another construct; also called bIgE-Fc2–4; biotin-IgE-Fc2–4

biotinylated-IgE-Fc2–4 [7] = target: T2, biotinylated-IgE-Fc2–4 (human, biotin (Sulfo-NHS-LC-Biotin)); assay: BLI; Octet-Red 96; biotin-labeled human IgE on streptavidin tips (~0.5 nm); serial dilution of anti-IgE agents from the lowest concentration (single cycle kinetics); 1:1 SCK model; conditions: both partners purified
T2 construct: IgE heavy chain constant region, human, Fc fragment with the domains Cε2, Cε3 and Cε4; the results speak of the KD for free IgE-Fc2–4; also called bIgE-Fc2–4; biotin-IgE-Fc2–4; source: labelled with Sulfo-NHS-LC-Biotin
T2 chain: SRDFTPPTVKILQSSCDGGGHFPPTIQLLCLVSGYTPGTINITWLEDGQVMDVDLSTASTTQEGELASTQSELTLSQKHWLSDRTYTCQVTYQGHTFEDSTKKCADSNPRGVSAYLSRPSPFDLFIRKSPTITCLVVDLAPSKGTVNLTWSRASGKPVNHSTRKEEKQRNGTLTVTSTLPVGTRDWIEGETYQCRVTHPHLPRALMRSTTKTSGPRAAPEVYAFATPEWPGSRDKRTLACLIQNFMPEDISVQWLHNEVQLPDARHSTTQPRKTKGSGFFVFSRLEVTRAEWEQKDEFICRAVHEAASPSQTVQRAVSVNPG

biotinylated IgE-Fc2–4 [8] = target: T3, biotinylated IgE-Fc2–4 (Homo sapiens, UniProt P01854, biotin (Sulfo-NHS-LC-Biotin labelling)); assay: BLI; Octet-Red 96; biotin-labeled human IgE immobilised on streptavidin tips (~0.5 nm); serial dilution of anti-IgE agents from the lowest concentration (single-cycle kinetics); 1:1 SCK binding model; conditions: both partners purified
T3 construct: human IgE heavy chain constant region, Fc fragment with the domains Cε2 to Cε4 (IgE-Fc2–4); PDB 2Y7Q is a cited IgE-Fc2–4:FcεRIα structure and may be another construct; also called bIgE-Fc2–4; biotin-IgE-Fc2–4

biotinylated-IgE-Fc2–4 [9] = target: T2, biotinylated-IgE-Fc2–4; assay: bead-based disruption assay (flow cytometry of beads); FcεRIα-Ova coupled polystyrene beads loaded with 500 nM biotin-IgE-Fc2–4 and washed; serial dilution of anti-IgE agent, 30 min, room temperature, 900 rpm; fixed; remaining bIgE-Fc2–4 stained with PE/Cy5-streptavidin; ID50 from dose response fit; conditions: both partners purified

Sequence of Biotinylated full length recombinant IgE (human) (P01854 whole entry, looked up): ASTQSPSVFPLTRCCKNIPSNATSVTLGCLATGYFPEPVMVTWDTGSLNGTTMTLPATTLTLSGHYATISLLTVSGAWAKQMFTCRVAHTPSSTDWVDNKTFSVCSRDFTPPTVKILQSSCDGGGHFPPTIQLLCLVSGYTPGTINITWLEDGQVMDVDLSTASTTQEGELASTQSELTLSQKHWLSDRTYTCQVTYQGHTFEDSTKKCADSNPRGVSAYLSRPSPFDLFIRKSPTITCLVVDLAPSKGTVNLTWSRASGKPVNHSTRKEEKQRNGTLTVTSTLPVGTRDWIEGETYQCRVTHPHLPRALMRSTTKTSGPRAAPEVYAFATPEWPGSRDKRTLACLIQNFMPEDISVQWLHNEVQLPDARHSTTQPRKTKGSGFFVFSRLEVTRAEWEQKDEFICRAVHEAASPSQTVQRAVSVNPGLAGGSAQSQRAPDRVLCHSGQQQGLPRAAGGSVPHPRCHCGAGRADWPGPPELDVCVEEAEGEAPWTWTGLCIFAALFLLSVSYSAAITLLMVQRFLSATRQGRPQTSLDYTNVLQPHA
Sequence of FcεRI (Homo sapiens) (P12319 26-257): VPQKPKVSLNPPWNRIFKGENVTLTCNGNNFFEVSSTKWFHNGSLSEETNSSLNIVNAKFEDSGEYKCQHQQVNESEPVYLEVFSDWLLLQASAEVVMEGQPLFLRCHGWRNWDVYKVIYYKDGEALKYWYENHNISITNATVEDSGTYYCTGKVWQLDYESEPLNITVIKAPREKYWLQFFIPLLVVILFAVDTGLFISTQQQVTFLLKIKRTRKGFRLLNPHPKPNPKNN
Sequence of bIgE-Fc2–4:FcεRIα-Ova complex (P12319 whole entry, looked up, tested part not stated, one chain of several): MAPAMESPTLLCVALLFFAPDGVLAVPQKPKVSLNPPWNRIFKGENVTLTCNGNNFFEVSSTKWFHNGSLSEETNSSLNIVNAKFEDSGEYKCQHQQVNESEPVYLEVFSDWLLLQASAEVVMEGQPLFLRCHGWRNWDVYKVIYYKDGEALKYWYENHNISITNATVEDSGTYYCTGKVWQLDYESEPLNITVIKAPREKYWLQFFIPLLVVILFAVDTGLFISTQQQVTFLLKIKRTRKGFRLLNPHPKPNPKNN

Molecule: IgE (from UniProt P01854)
Kd (FcεRI (Homo sapiens)): 0.1 nM

Molecule: HAE scFv (high-affinity omalizumab variant)
KD of the high affinity site (2:1 model) [4]: 2.86 nM
KD of the low affinity site (2:1 model) [4]: 25.8 nM

B1: DARPin E2_79 (designed binder)
chain: MRGSHHHHHHGSDLGKKLLEAARAGQDDEVRILTANGADVNANDYWGHTPLHLAAMLGHLEIVEVLLKNGADVNATGNTGRTPLHLAAWADHLEIVEVLLKHGADVNAQDKFGKTAFDISIDNGNEDLAEILQKL
Kd [5]: 1.18 nM
koff [5]: 0.00212 s⁻¹
kon [5]: 1.79e+06 M⁻¹ s⁻¹
Kd (biotinylated IgE-Fc2–4 [6]): 1.18 nM
koff (biotinylated IgE-Fc2–4 [6]): 0.00212 s⁻¹
kon (biotinylated IgE-Fc2–4 [6]): 1.79e+06 M⁻¹ s⁻¹

B2: clone 16 scFv (scFv, V domains shown)
VH: EVQLVESGGGLVQPDGSLRLSCAVSGYNITSGYSWNWIRQTPGKGLEWVASVTYDGSTNYNPSVKGRITISRDGSKNTFYLQMNSLRAEDTAVYYCAKGNNYFGHWHFAVWGQGTLVTVSS
VL: DIQLTQSPSSLSASVGDRVTITCRASKPVDGEGDSYLNWYQQKPGKAPKLLIYAASYLESGVPSRFSGSGSGTYFTLTISSLQPEDFATYYCQQSHEDPYTFGQGTKVEIK
notes: VH of clone 16, from a shuffled library of C02 and HAE; most clones used the C02-VH with sporadic further mutations; VL of clone 16, from a shuffled library of C02 and HAE; most clones used the HAE-VL with sporadic further mutations
binding result (biotinylated-IgE-Fc2–4 [7]): binds

B4: clone 7 scFv (scFv, V domains shown)
VH: B2 VH
VL: B2 VL with P28S, G31S, E32D, L37M, K46R, Y74H
notes: VH as the VH of C02; VL as the VL of C02 with D74H in the E-strand; Identical to C02 beyond D74H
fold increase of ID50 against C02 (biotinylated-IgE-Fc2–4 [9]): 5 fold

B5: clone A4 scFv (scFv, V domains shown)
VH: B2 VH
VL: B2 VL with Y74G
notes: VH of clone A4, from a shuffled library of C02 and HAE; most clones used the C02-VH with sporadic further mutations; VL of clone A4, from a shuffled library of C02 and HAE; most clones used the HAE-VL with sporadic further mutations
binding result (biotinylated-IgE-Fc2–4 [7]): binds

The remaining lines, values ahead:

koff (IgE [1]): 0.013 s⁻¹
other: ID50 [2]: 40000 nM
Molecule: omalizumab single chain variable fragment (scFv) scFvCC (cysteines for a disulfide bond at the VH:VL interface; positions not printed)

koff (IgE [3]): 0.00026 s⁻¹
kon (IgE [3]): 1.7e+06 M⁻¹ s⁻¹
Molecule: omalizumab single chain variable fragment (scFv) VH:S28N; VH:T53K; VH:D55S; VH:S57E; VH:N59K; VL:Q27K; VL:S28P; VL:Y31G; VL:D32E; VL:M37L

koff (IgE [3]): 0.002 s⁻¹
kon (IgE [3]): 1e+06 M⁻¹ s⁻¹
Molecule: omalizumab single chain variable fragment (scFv) VH:G15D; VH:I52V; VL:Y31S

koff (IgE [3]): 0.0016 s⁻¹
kon (IgE [3]): 2e+06 M⁻¹ s⁻¹
Molecule: omalizumab single chain variable fragment (scFv) VH:G15D; VH:A41T; VH:I52V; VH:D74G; VH:R98K; VH:S100N; VH:H101N; VL:Q27K; VL:Y31S; VL:K46R

Kd (biotinylated IgE-Fc2–4 [8]): 0.377 nM
koff (biotinylated IgE-Fc2–4 [8]): 0.000565 s⁻¹
kon (biotinylated IgE-Fc2–4 [8]): 1.5e+06 M⁻¹ s⁻¹
B3: clone A4 scFv (shuffled C02/HAE omalizumab variant with VL D74G) (scFv, V domains shown)
VH: B2 VH
VL: B2 VL with Y74G
notes: from a shuffled library of C02 (Sm8) and HAE (Sm7); D74G in the E-strand of VL; D74 counts on the VL domain

Kd (biotinylated IgE-Fc2–4 [8]): 0.581 nM
koff (biotinylated IgE-Fc2–4 [8]): 0.00104 s⁻¹
kon (biotinylated IgE-Fc2–4 [8]): 1.79e+06 M⁻¹ s⁻¹
B6: clone 7 scFv (C02 with VL D74H) (scFv, V domains shown)
VH: B2 VH
VL: B2 VL with P28S, G31S, E32D, L37M, K46R, Y74H
notes: as the scFv of C02 (Sm8), identical to it beyond D74H in the E-strand of the VL domain; cryo-EM structure with the locked IgE-Fc2–4:FcεRIα complex solved here; D74 counts on the VL domain

Kd (biotinylated IgE-Fc2–4 [8]): 0.308 nM
koff (biotinylated IgE-Fc2–4 [8]): 0.000448 s⁻¹
kon (biotinylated IgE-Fc2–4 [8]): 1.45e+06 M⁻¹ s⁻¹
B7: clone 16 scFv (shuffled C02/HAE omalizumab variant with VL D74Y) (scFv, V domains shown)
VH: B2 VH
VL: B2 VL
notes: from a shuffled library of C02 (Sm8) and HAE (Sm7); D74Y in the E-strand of VL; D74 counts on the VL domain

From publication PMC8642555 (Nature Communications, 2021)
